Data from patent CN111138537A (REYOUNG (SUZHOU) BIOPHARMACEUTICAL CO LTD, dated 2020).

Molecular target: T1, 人血清白蛋白 (human, UniProt P02768 25-609)
T1 construct: also called HSA; human serum albumin
Experiment: SPR (Biacore T200), HSA amine-coupled to CM5 chip, NB22 as analyte

B1: 单域抗体NB22 (VHH)
VHH: QVQLQESGGGSVQAGGSLRLSCAASAYTYSTTCMAWFRQAPGKEREKVATITTGGTYPYYADSVKGRFTISQDNAKNTVYLQMNSLKPEDTAMYYCAADASWGCRLSGSWSTVYNYWGQGTQVTVSS
notes: Camel (Bactrian) VHH from a phage display library; expressed in E. coli periplasm with a C-terminal 6x His tag and nickel-purified; also called 抗人血清白蛋白单域抗体
**Q.** With B1 as the binder, how does the Kd read?
**A.** Its Kd is 683 pM.
